Consider 10 molecules from patent publication US20250051474A1, “ANTI-CD97 ANTIBODIES AND ANTIBODY-DRUG CONJUGATES” (New York University, priority 2023, published 2025).

The target in one experiment is T1, CD97 isoform 1 (Homo sapiens, UniProt P48960).
T1 construct: The genes encoding the ectodomains of CD97 (isoforms 1 and 2) and EMR2 (isoforms 1 and 4); inferred from IMAC purification; inferred from BirA biotinylation; made in house; host or cells: expi293F
T1 sequence (P48960 21-552 limits assumed): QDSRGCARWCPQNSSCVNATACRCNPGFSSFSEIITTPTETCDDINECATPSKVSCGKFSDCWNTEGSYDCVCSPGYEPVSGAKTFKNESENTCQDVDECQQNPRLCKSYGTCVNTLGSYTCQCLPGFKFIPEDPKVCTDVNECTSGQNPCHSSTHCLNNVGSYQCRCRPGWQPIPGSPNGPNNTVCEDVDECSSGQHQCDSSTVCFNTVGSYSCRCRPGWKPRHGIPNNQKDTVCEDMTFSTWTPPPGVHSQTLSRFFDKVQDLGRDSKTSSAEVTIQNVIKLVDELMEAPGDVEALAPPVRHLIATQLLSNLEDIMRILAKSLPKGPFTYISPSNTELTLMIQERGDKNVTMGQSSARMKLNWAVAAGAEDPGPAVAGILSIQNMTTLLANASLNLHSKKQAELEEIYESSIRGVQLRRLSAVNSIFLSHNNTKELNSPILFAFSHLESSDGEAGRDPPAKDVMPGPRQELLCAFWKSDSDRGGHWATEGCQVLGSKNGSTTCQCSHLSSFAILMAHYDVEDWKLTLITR
Kind of experiment: Bead-based binding assay of Fab clones. The following applies: for binding of A8 CDRH3 mutants to CD97 isoform 1: Fab format, compared with wild type A8. The method, then:
Binding titration of the Fab clones was performed by a bead binding assay, as described previously (7,8). Briefly, biotinylated antigens were immobilized on Dynabeads M-280 streptavidin (Thermo Fisher). The biotinylated Fab clones were titrated into a solution containing the antigen-coated beads. After incubation, the beads were washed three times and incubated with anti-human F(ab′)2-Alexa Fluor 647 (Jackson ImmunoResearch). The beads were further washed three times and analyzed on a HyperCyt (Intellicyt).
The genes encoding the ectodomains of CD97 (isoforms 1 and 2) and EMR2 (isoforms 1 and 4) (FIG. 1) were synthesized (Integrated DNA Technologies) and cloned into the mammalian expression vector pBCAG. The expi293F cells (Thermo Fisher) were transfected with the vectors using the ExpiFectamine 293 transfection kit (Thermo Fisher) according to the manufacturer's protocol. The cells were incubated at 37° C. with 8% CO2. The proteins were purified from the cell culture supernatant by immobilized metal affinity chromatography (IMAC). The purified proteins were biotinylated in vitro using the BirA enzyme in the presence of 0.5 mM Biotin and 10 mM ATP. After the removal of the BirA enzyme by IMAC, the proteins were further purified by size exclusion chromatography using a Superdex 200 10/300 Increase (Cytiva). The purity of the proteins was confirmed by SDS-PAGE.

Experiment [1] has as its target T2, CD97 (ADGRE5) isoform 1 ectodomain, purified and biotinylated (human, UniProt P48960 21-552, limits assumed, biotinylated in vitro using the BirA enzyme).
T2 construct: the whole entry for isoform 1 is named here; also called CD97 isoform 1; Biotinylated CD97 isoform 1
T2 sequence: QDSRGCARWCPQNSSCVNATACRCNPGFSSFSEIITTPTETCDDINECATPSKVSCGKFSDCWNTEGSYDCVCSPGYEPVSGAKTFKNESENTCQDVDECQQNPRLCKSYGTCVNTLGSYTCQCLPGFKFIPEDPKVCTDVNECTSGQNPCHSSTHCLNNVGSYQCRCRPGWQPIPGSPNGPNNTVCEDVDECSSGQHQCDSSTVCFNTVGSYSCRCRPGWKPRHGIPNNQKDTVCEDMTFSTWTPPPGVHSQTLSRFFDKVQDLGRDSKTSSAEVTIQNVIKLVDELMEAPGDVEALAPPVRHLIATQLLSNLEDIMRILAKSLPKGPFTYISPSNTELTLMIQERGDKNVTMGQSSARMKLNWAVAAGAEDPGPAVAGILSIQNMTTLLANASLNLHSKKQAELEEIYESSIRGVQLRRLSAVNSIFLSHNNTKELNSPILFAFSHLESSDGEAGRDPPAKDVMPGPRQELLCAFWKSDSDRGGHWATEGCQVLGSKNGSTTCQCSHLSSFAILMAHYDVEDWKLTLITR
Kind of experiment: bead-based binding titration (biotinylated antigen on streptavidin beads, flow cytometry), 1:1 fit [Continued]. (In flow cytometry, cells or beads pass a laser one at a time.)

For experiment [2], the target named is T3, CD97 (ADGRE5) isoform 2 ectodomain, purified and biotinylated (human, UniProt P48960 21-552, biotinylated in vitro using the BirA enzyme).
T3 construct: the whole entry for isoform 2 is named here; also called CD97 isoform 2
T3 sequence: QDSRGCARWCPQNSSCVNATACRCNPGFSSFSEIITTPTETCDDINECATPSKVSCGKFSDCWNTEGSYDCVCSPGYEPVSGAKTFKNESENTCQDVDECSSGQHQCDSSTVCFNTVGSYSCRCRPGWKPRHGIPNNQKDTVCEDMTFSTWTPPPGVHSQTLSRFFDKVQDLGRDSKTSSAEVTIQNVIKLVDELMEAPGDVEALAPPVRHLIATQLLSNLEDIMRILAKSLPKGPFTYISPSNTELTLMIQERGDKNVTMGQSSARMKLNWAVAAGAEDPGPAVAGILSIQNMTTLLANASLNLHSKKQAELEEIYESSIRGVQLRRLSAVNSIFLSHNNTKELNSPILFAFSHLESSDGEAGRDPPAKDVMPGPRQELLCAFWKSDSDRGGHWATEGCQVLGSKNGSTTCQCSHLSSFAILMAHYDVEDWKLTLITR
The description is as above.

Experiment [3] concerns the target T4, EMR2 (EGF-like module-containing mucin-like hormone receptor-like 2) isoform 4 ectodomain, purified and … (UniProt Q9UHX3-4 24-447, limits assumed, biotinylated in vitro using the BirA enzyme).
T4 construct: extracellular domain; Close homolog of CD97 used as specificity control
T4 sequence (looked up): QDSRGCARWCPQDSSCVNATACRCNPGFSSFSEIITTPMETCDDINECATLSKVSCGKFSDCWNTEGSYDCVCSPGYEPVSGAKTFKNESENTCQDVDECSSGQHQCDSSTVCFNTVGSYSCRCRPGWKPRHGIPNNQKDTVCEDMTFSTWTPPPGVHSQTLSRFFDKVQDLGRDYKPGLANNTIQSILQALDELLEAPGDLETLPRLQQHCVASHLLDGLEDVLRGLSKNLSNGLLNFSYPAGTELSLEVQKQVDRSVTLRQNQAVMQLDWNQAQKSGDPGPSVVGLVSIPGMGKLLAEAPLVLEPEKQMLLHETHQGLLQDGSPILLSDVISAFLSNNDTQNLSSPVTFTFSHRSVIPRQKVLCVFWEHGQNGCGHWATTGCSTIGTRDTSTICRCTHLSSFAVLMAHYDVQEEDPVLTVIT
Kind of experiment: bead-based binding titration (biotinylated antigen on streptavidin beads, flow cytometry).

In experiment [4] the target is T2, CD97 (ADGRE5) isoform 1 ectodomain, …. Kind of experiment: bead-based binding titration (biotinylated antigen on streptavidin beads, flow cytometry), 1:1 fit.
In experiment [5] the target is T3, CD97 (ADGRE5) isoform 2 ectodomain, …. The description is as above.

B1: C27: anti-CD97 antibody clone, VL SEQ ID NO: 21, VH SEQ ID NO: 46 (antibody, V domains shown)
VH: EVQLVESGGGLVQPGGSLRLSCAASGFTLSSSSIHWVRQAPGKGLEWVASIYSYYGSTYYADSVKGRFTISADTSKNTAYLQMNSLRAEDTAVYYCARYRGNMYYWESWYGSYWALDYWGQGTLVTVSS
VL: DIQMTQSPSSLSASVGDRVTITCRASQSVSSAVAWYQQKPGKAPKLLIYSASSLYSGVPSRFSGSRSGTDFTLTISSLQPEDFATYYCQQSSSSLITFGQGTKVEIKRTV
As to B1, in the experiment with CD97 isoform 1 (Fab clones of the first antibody discovery campaign, purified biotinylated antigen on beads), the “binding to CD97 isoform 1” value is “bound only to CD97 isoform 1”.

B2: A8 Y100fHA: A8 mutant, VL SEQ ID NO: 9, VH SEQ ID NO: 111 (antibody, V domains shown)
VH: EVQLVESGGGLVQPGGSLRLSCAASGFTISSYSIHWVRQAPGKGLEWVASISPYYGSTSYADSVKGRFTISADTSKNTAYLQMNSLRAEDTAVYYCARSWYYYEQNPYWAQKEEQALDYWGQGTLVTVSS
VL: DIQMTQSPSSLSASVGDRVTITCRASQSVSSAVAWYQQKPGKAPKLLIYSASSLYSGVPSRFSGSRSGTDFTLTISSLQPEDFATYYCQQSVYSPVTFGQGTKVEIKRTV
Regarding B2, in the experiment with CD97 isoform 1, the “binding of A8 CDRH3 mutants to CD97 isoform 1” value (“binding of A8 CDRH3 mutants” for short) was “substantially reduced or abolished binding to CD97”.

B3: A8 N100bHE: A8 mutant, VL SEQ ID NO: 9, VH SEQ ID NO: 109 (antibody, V domains shown)
VH: EVQLVESGGGLVQPGGSLRLSCAASGFTISSYSIHWVRQAPGKGLEWVASISPYYGSTSYADSVKGRFTISADTSKNTAYLQMNSLRAEDTAVYYCARSWYYYEQEPYWYQKEEQALDYWGQGTLVTVSS
VL: DIQMTQSPSSLSASVGDRVTITCRASQSVSSAVAWYQQKPGKAPKLLIYSASSLYSGVPSRFSGSRSGTDFTLTISSLQPEDFATYYCQQSVYSPVTFGQGTKVEIKRTV
Turning to B3, the “binding of A8 CDRH3 mutants” value with CD97 isoform 1 is on record as “substantially reduced or abolished binding to CD97”.

B4: A8 W100eHA: A8 mutant, VL SEQ ID NO: 9, VH SEQ ID NO: 110 (antibody, V domains shown)
VH: EVQLVESGGGLVQPGGSLRLSCAASGFTISSYSIHWVRQAPGKGLEWVASISPYYGSTSYADSVKGRFTISADTSKNTAYLQMNSLRAEDTAVYYCARSWYYYEQNPYAYQKEEQALDYWGQGTLVTVSS
VL: DIQMTQSPSSLSASVGDRVTITCRASQSVSSAVAWYQQKPGKAPKLLIYSASSLYSGVPSRFSGSRSGTDFTLTISSLQPEDFATYYCQQSVYSPVTFGQGTKVEIKRTV
With B4, in the experiment with CD97 isoform 1, the “binding of A8 CDRH3 mutants” value was “substantially reduced or abolished binding to CD97”.

B5: Fab D9 (Fab, V domains shown)
VH: EVQLVESGGGLVQPGGSLRLSCAASGFTVSSSSIHWVRQAPGKGLEWVASISSYYGYTSYADSVKGRFTISADTSKNTAYLQMNSLRAEDTAVYYCARYPMFSYYYWYYGMDYWGQGTLVTVSS
VL: DIQMTQSPSSLSASVGDRVTITCRASQSVSSAVAWYQQKPGKAPKLLIYSASSLYSGVPSRFSGSRSGTDFTLTISSLQPEDFATYYCQQSSGYPVTFGQGTKVEIKR
notes: first discovery campaign; also called Antibody Clone D9
Regarding B5, the Kd was determined as 3.4 nM in experiment [1] and 3.6 nM in experiment [2].

B6: Fab 2X10 (Fab, V domains shown)
VH: EVQLVESGGGLVQPGGSLRLSCAASGFTFSSSSIHWVRQAPGKGLEWVASISSSSGSTSYADSVKGRFTISADTSKNTAYLQMNSLRAEDTAVYYCARSYWDMYIYWYYYVKQSRGMDYWGQGTLVTVSS
VL: DIQMTQSPSSLSASVGDRVTITCRASQSVSSAVAWYQQKPGKAPKLLIYSASSLYSGVPSRFSGSRSGTDFTLTISSLQPEDFATYYCQQSSSSLITFGQGTKVEIKR
notes: second discovery campaign; biotinylated Fab in the bead assay; also called Antibody Clone 2X10
Turning to B6, the binding result in experiment [3] is reported as “no binding (tested: 100 nM)”. Also, the dissociation constant (Kd) in experiment [4] amounted to 54 nM; in experiment [5], 41 nM.

B7: Fab 2Z3 (Fab, V domains shown)
VH: EVQLVESGGGLVQPGGSLRLSCAASGFTFSSSSIHWVRQAPGKGLEWVASISSSSGSTSYADSVKGRFTISADTSKNTAYLQMNSLRAEDTAVYYCARVLLGKFWYYNYYEYSAMDYWGQGTLVTVSS
VL: DIQMTQSPSSLSASVGDRVTITCRASQSVSSAVAWYQQKPGKAPKLLIYSASSLYSGVPSRFSGSRSGTDFTLTISSLQPEDFATYYCQQSSSSLITFGQGTKVEIKR
notes: second discovery campaign; biotinylated Fab in the bead assay; also called Antibody Clone 2Z3
Consider B7, for which the binding result in experiment [3] is “no binding (tested: 50 nM)”. Further, the dissociation constant Kd in experiment [4] and in experiment [5] was 7.1 nM throughout.

B8: Fab D12 (Fab, V domains shown)
VH: EVQLVESGGGLVQPGGSLRLSCAASGFTFSSSSIHWVRQAPGKGLEWVASISSSSGSTSYADSVKGRFTISADTSKNTAYLQMNSLRAEDTAVYYCARIRHYHWYEIPYWDWAIDYWGQGTLVTVSS
VL: DIQMTQSPSSLSASVGDRVTITCRASQSVSSAVAWYQQKPGKAPKLLIYSASSLYSGVPSRFSGSRSGTDFTLTISSLQPEDFATYYCQQSSSSLITFGQGTKVEIKR
notes: first discovery campaign; also called Antibody Clone D12
As to B8, the Kd came to 3 nM in experiment [1] and 3.2 nM in experiment [2].

B9: Fab 2A5 (Fab, V domains shown)
VH: EVQLVESGGGLVQPGGSLRLSCAASGFTFSSSSIHWVRQAPGKGLEWVASISSSYGSTSYADSVKGRFTISADTSKNTAYLQMNSLRAEDTAVYYCARGWAYSYWYYSHYYEYEVALDYWGQGTLVTVSS
VL: DIQMTQSPSSLSASVGDRVTITCRASQSVSSAVAWYQQKPGKAPKLLIYSASSLYSGVPSRFSGSRSGTDFTLTISSLQPEDFATYYCQQSKFSSPVTFGQGTKVEIKR
notes: second discovery campaign; biotinylated Fab in the bead assay; also called Antibody Clone 2A5
Regarding B9, the binding result in experiment [3] was “no binding (tested: 50 nM)”. The dissociation constant (Kd) turned out to be 2.6 nM in experiment [4] and 2 nM in experiment [5].

B10: Fab 2X12 (Fab, V domains shown)
VH: EVQLVESGGGLVQPGGSLRLSCAASGFTISSSSIHWVRQAPGKGLEWVASISSSSSYTSYADSVKGRFTISADTSKNTAYLQMNSLRAEDTAVYYCARMDISYYYYEWGFESAYYGMDYWGQGTLVTVSS
VL: DIQMTQSPSSLSASVGDRVTITCRASQSVSSAVAWYQQKPGKAPKLLIYSASSLYSGVPSRFSGSRSGTDFTLTISSLQPEDFATYYCQQWWGPELVTFGQGTKVEIKR
notes: second discovery campaign; biotinylated Fab in the bead assay; also called Antibody Clone 2X12
With B10, in experiment [3], the binding result is listed as “no binding (tested: 100 nM)”. Besides, the Kd in experiment [4] worked out at 22 nM; in experiment [5], 29 nM.

What is called Kd is the concentration at which binding is half-saturated. Read a low Kd as tighter binding.
